The values that follow come from patent US20080219962.

Data set [1] concerns myc-labeled Runx2.
Data set [2] has as its system Runx2-P415R.
For data set [3], the system named is Runx2-del-415-418.
Chain of Runx2-del-415-418 (chain, as listed by the source): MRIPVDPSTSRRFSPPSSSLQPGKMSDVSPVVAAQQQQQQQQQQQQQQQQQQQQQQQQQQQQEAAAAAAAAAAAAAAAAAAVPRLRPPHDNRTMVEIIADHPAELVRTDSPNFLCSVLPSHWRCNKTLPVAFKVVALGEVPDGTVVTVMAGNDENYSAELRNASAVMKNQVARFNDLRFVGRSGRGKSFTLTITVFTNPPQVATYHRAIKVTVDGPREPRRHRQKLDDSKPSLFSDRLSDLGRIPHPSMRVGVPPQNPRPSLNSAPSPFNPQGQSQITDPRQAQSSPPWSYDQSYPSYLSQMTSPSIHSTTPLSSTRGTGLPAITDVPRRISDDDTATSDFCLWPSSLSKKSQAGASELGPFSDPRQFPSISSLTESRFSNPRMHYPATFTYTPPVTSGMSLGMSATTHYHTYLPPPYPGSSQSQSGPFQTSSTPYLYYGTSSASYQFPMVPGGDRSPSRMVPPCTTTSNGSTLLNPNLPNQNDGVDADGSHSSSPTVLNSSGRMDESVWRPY

Chain of Smurf1 (Smad ubiquitin regulatory factor 1) (Q9HCE7 whole entry): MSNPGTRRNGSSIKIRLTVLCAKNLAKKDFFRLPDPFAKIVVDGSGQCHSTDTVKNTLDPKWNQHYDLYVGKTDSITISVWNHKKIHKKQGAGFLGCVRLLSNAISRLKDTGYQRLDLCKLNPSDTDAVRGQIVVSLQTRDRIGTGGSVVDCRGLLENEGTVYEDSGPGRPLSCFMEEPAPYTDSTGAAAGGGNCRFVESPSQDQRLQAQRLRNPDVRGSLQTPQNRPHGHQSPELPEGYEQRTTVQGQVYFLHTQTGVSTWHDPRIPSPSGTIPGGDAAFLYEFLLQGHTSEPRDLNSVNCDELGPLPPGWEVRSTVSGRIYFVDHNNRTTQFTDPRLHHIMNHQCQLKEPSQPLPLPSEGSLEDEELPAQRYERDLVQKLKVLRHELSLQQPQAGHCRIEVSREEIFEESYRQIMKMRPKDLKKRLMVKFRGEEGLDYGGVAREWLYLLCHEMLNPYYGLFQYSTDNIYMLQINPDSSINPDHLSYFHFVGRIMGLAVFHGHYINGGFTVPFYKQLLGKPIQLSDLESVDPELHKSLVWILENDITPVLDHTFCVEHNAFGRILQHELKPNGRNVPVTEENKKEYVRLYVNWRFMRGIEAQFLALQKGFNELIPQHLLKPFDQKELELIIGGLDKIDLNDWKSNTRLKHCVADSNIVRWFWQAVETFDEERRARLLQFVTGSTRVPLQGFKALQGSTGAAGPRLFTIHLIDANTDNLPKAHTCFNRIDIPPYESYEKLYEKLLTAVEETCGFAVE
Chain of myc-labeled Runx2 (chain, as listed by the source): as the sequence (chain, as listed by the source) above
Chain of myc-labeled HDAC5 (Q9UQL6 whole entry): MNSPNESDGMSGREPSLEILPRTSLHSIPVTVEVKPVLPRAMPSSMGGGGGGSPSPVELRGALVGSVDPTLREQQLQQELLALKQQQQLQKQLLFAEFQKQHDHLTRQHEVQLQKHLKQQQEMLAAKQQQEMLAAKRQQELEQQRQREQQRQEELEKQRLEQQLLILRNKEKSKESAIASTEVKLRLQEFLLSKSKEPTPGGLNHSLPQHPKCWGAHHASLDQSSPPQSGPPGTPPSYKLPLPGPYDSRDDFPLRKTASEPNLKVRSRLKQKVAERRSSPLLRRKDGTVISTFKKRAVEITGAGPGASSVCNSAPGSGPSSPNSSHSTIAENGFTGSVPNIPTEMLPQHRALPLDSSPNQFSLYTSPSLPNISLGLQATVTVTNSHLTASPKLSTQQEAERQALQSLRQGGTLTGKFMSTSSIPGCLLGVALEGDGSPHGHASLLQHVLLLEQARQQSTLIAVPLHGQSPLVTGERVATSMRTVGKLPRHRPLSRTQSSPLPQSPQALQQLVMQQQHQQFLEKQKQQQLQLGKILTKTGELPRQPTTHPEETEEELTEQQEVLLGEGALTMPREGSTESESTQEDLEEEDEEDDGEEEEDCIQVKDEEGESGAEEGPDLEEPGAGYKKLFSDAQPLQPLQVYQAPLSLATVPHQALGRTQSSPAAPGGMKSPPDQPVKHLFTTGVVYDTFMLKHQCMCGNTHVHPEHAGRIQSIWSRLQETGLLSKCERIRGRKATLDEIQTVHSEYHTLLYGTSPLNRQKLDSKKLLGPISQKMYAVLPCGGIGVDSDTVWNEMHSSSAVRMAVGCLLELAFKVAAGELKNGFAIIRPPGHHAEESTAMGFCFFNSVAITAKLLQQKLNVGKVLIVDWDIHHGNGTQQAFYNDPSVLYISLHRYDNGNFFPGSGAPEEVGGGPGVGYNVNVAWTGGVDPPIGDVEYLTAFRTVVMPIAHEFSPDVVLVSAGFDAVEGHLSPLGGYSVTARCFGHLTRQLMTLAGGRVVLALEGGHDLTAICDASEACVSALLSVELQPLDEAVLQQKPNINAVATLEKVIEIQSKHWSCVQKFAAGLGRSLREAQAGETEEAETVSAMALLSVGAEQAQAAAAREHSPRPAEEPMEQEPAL
Chain of Runx2-P415R (chain, as listed by the source P415R): as the sequence (chain, as listed by the source) above, with P415R counted along it
Chain of myc-labeled HDAC4 (P56524 whole entry): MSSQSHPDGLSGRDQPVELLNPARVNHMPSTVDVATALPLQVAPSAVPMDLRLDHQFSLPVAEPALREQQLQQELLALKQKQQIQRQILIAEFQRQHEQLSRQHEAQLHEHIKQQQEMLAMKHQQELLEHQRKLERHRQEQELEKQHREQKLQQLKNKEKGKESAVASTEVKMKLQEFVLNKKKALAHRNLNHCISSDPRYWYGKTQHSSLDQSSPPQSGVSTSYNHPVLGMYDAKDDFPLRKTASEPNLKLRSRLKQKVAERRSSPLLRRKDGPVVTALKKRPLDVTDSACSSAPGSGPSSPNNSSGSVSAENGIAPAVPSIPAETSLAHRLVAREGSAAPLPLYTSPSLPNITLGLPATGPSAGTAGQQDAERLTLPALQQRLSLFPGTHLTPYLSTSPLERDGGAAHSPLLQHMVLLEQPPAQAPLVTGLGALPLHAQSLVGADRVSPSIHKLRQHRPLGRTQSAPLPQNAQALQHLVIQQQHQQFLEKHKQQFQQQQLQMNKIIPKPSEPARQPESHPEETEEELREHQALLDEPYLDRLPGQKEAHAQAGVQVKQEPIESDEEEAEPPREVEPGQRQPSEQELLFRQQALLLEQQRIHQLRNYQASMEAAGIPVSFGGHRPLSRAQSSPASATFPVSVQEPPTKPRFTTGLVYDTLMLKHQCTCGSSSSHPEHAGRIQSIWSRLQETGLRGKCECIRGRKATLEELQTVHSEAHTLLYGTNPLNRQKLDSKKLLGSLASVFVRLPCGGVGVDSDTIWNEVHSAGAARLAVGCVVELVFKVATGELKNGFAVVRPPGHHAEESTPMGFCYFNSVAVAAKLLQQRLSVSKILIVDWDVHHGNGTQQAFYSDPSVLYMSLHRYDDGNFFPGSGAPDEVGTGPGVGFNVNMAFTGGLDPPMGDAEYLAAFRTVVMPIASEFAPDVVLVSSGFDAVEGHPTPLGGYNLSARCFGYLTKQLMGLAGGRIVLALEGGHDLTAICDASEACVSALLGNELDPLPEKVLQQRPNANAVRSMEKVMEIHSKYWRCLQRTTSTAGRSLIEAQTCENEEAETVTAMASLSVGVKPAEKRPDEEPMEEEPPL

myc-labeled HDAC5: the “Runx2 deacetylation (immunoprecipitation with anti-acetyl-lysine antibody, Western blot with anti-myc antibody)” value in data set [1] is “histone deacetylases 4 and 5 deacetylate Runx2”.
Take myc-labeled HDAC4: in data set [1], the “Runx2 deacetylation (immunoprecipitation with anti-acetyl-lysine antibody, Western blot with anti-myc antibody)” value is “histone deacetylases 4 and 5 deacetylate Runx2”.
On to “Smurf1 (Smad ubiquitin regulatory factor 1)”, for which the “Smurf1-mediated degradation of Runx2 (Western blot of Runx2 level)” value in data set [2] is “Runx2-del-415-418 and Runx2-P415R were very stable, which means they were strongly resistant to Smurf1-mediated degradation”; in data set [3] it was “Runx2-del-415-418 and Runx2-P415R were very stable, which means they were strongly resistant to Smurf1-mediated degradation”.
